PMC3793935
The star is where a group is joined. NH(3-CONH2-4-NO2-Ph) = NC(=O)c1cc(N*)ccc1[N+](=O)[O-]

T1: GS-SplD, recombinant SplD protease containing the Gly-Ser dipeptide at the N-terminus (Staphylococcus aureus strain 8325-4) (UniProt Q2FXC5)
T1 sequence: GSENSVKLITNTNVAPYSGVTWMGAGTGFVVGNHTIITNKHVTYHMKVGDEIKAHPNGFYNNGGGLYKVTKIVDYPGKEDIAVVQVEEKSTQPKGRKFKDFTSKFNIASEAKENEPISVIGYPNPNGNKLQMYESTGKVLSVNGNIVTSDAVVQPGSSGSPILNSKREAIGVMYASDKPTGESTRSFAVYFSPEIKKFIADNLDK


Target: T1, GS-SplD, recombinant SplD protease containing the Gly-Ser dipeptide at the N-terminus (Staphylococcus aureus strain 8325-4)

Row | Binder | Km of hydrolysis of the fluorescence-quenched peptide substrate by wild type SplD [µM]
1 | {ABZ}-WLVS-{NH(3-CONH2-4-NO2-Ph)-NH2} [ABZ-Trp-Leu-Val-Ser-ANB-NH2] | 31.1
2 | {ABZ}-WLTS-{NH(3-CONH2-4-NO2-Ph)-NH2} [ABZ-Trp-Leu-Thr-Ser-ANB-NH2] | 14.7
